Test results reported in patent publication US11180770B2, “HPPD variants and methods of use” (BASF Agricultural Solutions Seed US LLC, priority 2017, dated 2021).

B1: 31 (protein)
chain: MADLYENPMGLMGFEFIEFASPTPGTLEPIFEIMGFTKVATHRSKNVHLYRQGEINLILNNEPNSIASYFAAEHGPSVCGMAFRVKDSQKAYNRALELGAQPIHIDTGPMELNLPAIKGIGGAPLYLIDRFGEGSSIYDIDFVYLEGVERNPVGAGLKVIDHLTHNVYRGRMVYWANFYEKLFNFREARYFDIKGEYTGLTSKAMSAPDGMIRIPLNEESSKGAGQIEEFLMQFNGEGIQHVAFLTDDLVKTWDALKKIGMRFMTAPGDTYYEMLEGRLPDHGEPVDQLQARGILLDGSSVEGDKRLLLQIFSETLMGPVFFEFIQRKGDDGFGPHSFKVLFESVERDQVRRGVLTAD
modifications: mutant HPPD polypeptide
B2: 32 (protein)
chain: MADLYENPMGLMGFEFIEFASPTPGTLEPIFEIMGFTKVATHRSKNVHLYRQGEINLILNNEPNSIASYFAAEHGPSVCGMAFRVKDSQKAYNRALELGAQPIHIDTGPMELNLPAIKGIGGAPLYLIDRFGEGSSIYDIDFVYLEGVERNPVGAGLKVIDHLTHNVYRGRMVYWANFYEKLFNFREARYFDIKGEYTGLTSKAMSAPDGMIRIPLNEESSKGAGQIEEFLMQFNGEGIQHVAFLTDDLVKTWDALKKIGMRFMTAPPDTYYEMLEGRLPDHGEPVDQLQARGILLDGSSVEGDKRLLLQIFSETLMGPVFFEFIQRKGDDGFGPHSFKVLFESVERDQVRRGVLTAD
modifications: mutant HPPD polypeptide
B3: 33 (protein)
chain: MADLYENPMGLMGFEFIEFASPTPGTLEPIFEIMGFTKVATHRSKNVHLYRQGEINLILNNEPNSIASYFAAEHGPSVCGMAFRVKDSQKAYNRALELGAQPIHIDTGPMELNLPAIKGIGGAPLYLIDRFGEGSSIYDIDFVYLEGVERNPVGAGLKVIDHLTHNVYRGRMVYWANFYEKLFNFREARYFDIKGEYTGLTSKAMSAPDGMIRIPLNEESSKGAGQIEEFLMQFNGEGIQHVAFLTDDLVKTWDALKKIGMRFMTAPADNYYEMLEGRLPDHGEPVDQLQARGILLDGSSVEGDKRLLLQIFSETLMGPVFFEFIQRKGDDGFGPHSFKVLFESVERDQVRRGVLTAD
modifications: mutant HPPD polypeptide
B4: 34 (protein)
chain: MADLYENPMGLMGFEFIEFASPTPGTLEPIFEIMGFTKVATHRSKNVHLYRQGEINLILNNEPNSIASYFAAEHGPSVCGMAFRVKDSQKAYNRALELGAQPIHIDTGPMELNLPAIKGIGGAPLYLIDRFGEGSSIYDIDFVYLEGVERNPVGAGLKVIDHLTHNVYRGRMVYWANFYEKLFNFREARYFDIKGEYTGLTSKAMSAPDGMIRIPLNEESSKGAGQIEEFLMQFNGEGIQHVAFLTDDLVKTWDALKKIGMRFMTAPGDNYYEMLEGRLPDHGEPVDQLQARGILLDGSSVEGDKRLLLQIFSETLMGPVFFEFIQRKGDDGFGPHSFKVLFESVERDQVRRGVLTAD
modifications: mutant HPPD polypeptide
B5: 35 (protein)
chain: MADLYENPMGLMGFEFIEFASPTPGTLEPIFEIMGFTKVATHRSKNVHLYRQGEINLILNNEPNSIASYFAAEHGPSVCGMAFRVKDSQKAYNRALELGAQPIHIDTGPMELNLPAIKGIGGAPLYLIDRFGEGSSIYDIDFVYLEGVERNPVGAGLKVIDHLTHNVYRGRMVYWANFYEKLFNFREARYFDIKGEYTGLTSKAMSAPDGMIRIPLNEESSKGAGQIEEFLMQFNGEGIQHVAFLTDDLVKTWDALKKIGMRFMTAPPDNYYEMLEGRLPDHGEPVDQLQARGILLDGSSVEGDKRLLLQIFSETLMGPVFFEFIQRKGDDGFGPHSFKVLFESVERDQVRRGVLTAD
modifications: mutant HPPD polypeptide
B6: 36 (protein)
chain: MADLYENPMGLMGFEFIEFASPTPGTLEPIFEIMGFTKVATHRSKNVHLYRQGEINLILNNEPNSIASYFAAEHGPSVCGMAFRVKDSQKAYNRALELGAQPIHIDTGPMELNLPAIKGIGGAPLYLIDRFGEGSSIYDIDFVYLEGVERNPVGAGLKVIDHLTHNVYRGRMVYWANFYEKLFNFREARYFDIKGEYTGLTSKAMSAPDGMIRIPLNEESSKGAGQIEEFLMQFNGEGIQHVAFLTDDLVKTWDALKKIGMRFMTAPRDNYYEMLEGRLPDHGEPVDQLQARGILLDGSSVEGDKRLLLQIFSETLMGPVFFEFIQRKGDDGFGPHSFKVLFESVERDQVRRGVLTAD
modifications: mutant HPPD polypeptide
B7: 37 (protein)
chain: MADLYENPMGLMGFEFIEFASPTPGTLEPIFEIMGFTKVATHRSKNVHLYRQGEINLILNNEPNSIASYFAAEHGPSVCGMAFRVKDSQKAYNRALELGAQPIHIDTGPMELNLPAIKGIGGAPLYLIDRFGEGSSIYDIDFVYLEGVERNPVGAGLKVIDHLTHNVYRGRMVYWANFYEKLFNFREARYFDIKGEYTGLTSKAMSAPDGMIRIPLNEESSKGAGQIEEFLMQFNGEGIQHVAFLTDDLVKTWDALKKIGMRFMTAPSDNYYEMLEGRLPDHGEPVDQLQARGILLDGSSVEGDKRLLLQIFSETLMGPVFFEFIQRKGDDGFGPHSFKVLFESVERDQVRRGVLTAD
modifications: mutant HPPD polypeptide
B8: 38 (protein)
chain: MADLYENPMGLMGFEFIEFASPTPGTLEPIFEIMGFTKVATHRSKNVHLYRQGEINLILNNEPNSIASYFAAEHGPSVCGMAFRVKDSQKAYNRALELGAQPIHIDTGPMELNLPAIKGIGGAPLYLIDRFGEGSSIYDIDFVYLEGVERNPVGAGLKVIDHLTHNVYRGRMVYWANFYEKLFNFREARYFDIKGEYTGLTSKAMSAPDGMIRIPLNEESSKGAGQIEEFLMQFNGEGIQHVAFLTDDLVKTWDALKKIGMRFMTAPADEYYEMLEGRLPDHGEPVDQLQARGILLDGSSVEGDKRLLLQIFSETLMGPVFFEFIQRKGDDGFGPHSFKVLFESVERDQVRRGVLTAD
modifications: mutant HPPD polypeptide
B9: 39 (protein)
chain: MADLYENPMGLMGFEFIEFASPTPGTLEPIFEIMGFTKVATHRSKNVHLYRQGEINLILNNEPNSIASYFAAEHGPSVCGMAFRVKDSQKAYNRALELGAQPIHIDTGPMELNLPAIKGIGGAPLYLIDRFGEGSSIYDIDFVYLEGVERNPVGAGLKVIDHLTHNVYRGRMVYWANFYEKLFNFREARYFDIKGEYTGLTSKAMSAPDGMIRIPLNEESSKGAGQIEEFLMQFNGEGIQHVAFLTDDLVKTWDALKKIGMRFMTAPGDEYYEMLEGRLPDHGEPVDQLQARGILLDGSSVEGDKRLLLQIFSETLMGPVFFEFIQRKGDDGFGPHSFKVLFESVERDQVRRGVLTAD
modifications: mutant HPPD polypeptide
B10: 40 (protein)
chain: MADLYENPMGLMGFEFIEFASPTPGTLEPIFEIMGFTKVATHRSKNVHLYRQGEINLILNNEPNSIASYFAAEHGPSVCGMAFRVKDSQKAYNRALELGAQPIHIDTGPMELNLPAIKGIGGAPLYLIDRFGEGSSIYDIDFVYLEGVERNPVGAGLKVIDHLTHNVYRGRMVYWANFYEKLFNFREARYFDIKGEYTGLTSKAMSAPDGMIRIPLNEESSKGAGQIEEFLMQFNGEGIQHVAFLTDDLVKTWDALKKIGMRFMTAPGDEYYEMLEGRLPDHGEPVDQLQARGILLDGSSVEGDKRLLLQIFSETLMGPVFFEFIQRKGDDGFGPDSFKVLFESVERDQVRRGVLTAD
modifications: mutant HPPD polypeptide
B11: 41 (protein)
chain: MADLYENPMGLMGFEFIEFASPTPGTLEPIFEIMGFTKVATHRSKNVHLYRQGEINLILNNEPNSIASYFAAEHGPSVCGMAFRVKDSQKAYNRALELGAQPIHIDTGPMELNLPAIKGIGGAPLYLIDRFGEGSSIYDIDFVYLEGVERNPVGAGLKVIDHLTHNVYRGRMVYWANFYEKLFNFREARYFDIKGEYTGLTSKAMSAPDGMIRIPLNEESSKGAGQIEEFLMQFNGEGIQHVAFLTDDLVKTWDALKKIGMRFMTAPRDEYYEMLEGRLPDHGEPVDQLQARGILLDGSSVEGDKRLLLQIFSETLMGPVFFEFIQRKGDDGFGPHSFKVLFESVERDQVRRGVLTAD
modifications: mutant HPPD polypeptide
B12: 42 (protein)
chain: MADLYENPMGLMGFEFIEFASPTPGTLEPIFEIMGFTKVATHRSKNVHLYRQGEINLILNNEPNSIASYFAAEHGPSVCGMAFRVKDSQKAYNRALELGAQPIHIDTGPMELNLPAIKGIGGAPLYLIDRFGEGSSIYDIDFVYLEGVERNPVGAGLKVIDHLTHNVYRGRMVYWANFYEKLFNFREARYFDIKGEYTGLTSKAMSAPDGMIRIPLNEESSKGAGQIEEFLMQFNGEGIQHVAFLTDDLVKTWDALKKIGMRFMTAPSDEYYEMLEGRLPDHGEPVDQLQARGILLDGSSVEGDKRLLLQIFSETLMGPVFFEFIQRKGDDGFGPHSFKVLFESVERDQVRRGVLTAD
modifications: mutant HPPD polypeptide
B13: 43 (protein)
chain: MADLYENPMGLMGFEFIEFASPTPGTLEPIFEIMGFTKVATHRSKNVHLYRQGEINLILNNEPNSIASYFAAEHGPSVCGMAFRVKDSQKAYNRALELGAQPIHIDTGPMELNLPAIKGIGGAPLYLIDRFGEGSSIYDIDFVYLEGVERNPVGAGLKVIDHLTHNVYRGRMVYWANFYEKLFNFREARYFDIKGEYTGLTSKAMSAPDGMIRIPLNEESSKGAGQIEEFLMQFNGEGIQHVAFLTDDLVKTWDALKKIGMRFMTAPADEYYEMLEGRLPDHGEPVDQLQARGILLDGSSVEGDKRLLLQIFSETLMGPVFFEFIQRKGDDGFGPHSFKVLFEQVERDQVRRGVLTAD
modifications: mutant HPPD polypeptide

Tested on: HPPD polypeptides
Test: coupled HPPD activity assay: turnover and residual turnover in crude extracts
Assay type: biochemical, Pseudomonas fluorescens
Details: for Residual turnover [%]: 100 μM Cmpd. 1, signal change with inhibitor divided by signal change without inhibitor; for Turnover: absence of Cmpd. 1, kinetic changes in absorbance (OD) at 320 nm, 30 min; for Turnover / Residual turnover: high substrate concentration; for Residual turnover: presence of 100 μM Cmpd. 1, changes in absorbance (OD) at 320 nm

Molecule	Residual turnover [%]	Turnover	Residual turnover
B1	37%	0.268	0.098
B2	39%	0.326	0.128
B3	46%	0.189	0.087
B4	47%	0.243	0.113
B5	–	0.036	0.023
B6	61%	0.108	0.066
B7	50%	0.096	0.048
B8	45%	0.286	0.129
B9	40%	0.244	0.097
B10	54%	0.134	0.073
B11	38%	0.280	0.105
B12	40%	0.278	0.111
B13	58%	0.190	0.110
